Assay results published in publication PMC9600267, “The Antibacterial Type VII Secretion System of Bacillus subtilis: Structure and Interactions of the Pseudokinase YukC/EssB” (mBio, 2022).

Molecular target: the molecule itself
Experiment: crystal structure; hanging-drop vapor diffusion at 4°C; 20 mg/mL YukC413 in 25 mM HEPES pH 8, 175 mM NaCl, 0.04% Cymal-6 with 0.1 M MgCl2, 50 mM HEPES pH 7.5, 15% PEG 2000; molecular replacement

B1: YukC413 (YukC lacking the last 38 residues), Strep-tagged (pRSF/yukC413.strep) (domain or fragment, Bacillus subtilis 168, UniProt P71070 1-413, looked up)
chain: MSGEQKSYLENQLEAVAEKTDAGYTFTFQREKIKLLDGLEANVIKDINPFFHKEIDVTDDEVIITIQPPSSYKAFRFMKAKDKKSKWQFAYQLVQAVQQHNLSRLNLIVAPENIVFDKGLTPYFLHYGVKESIPPYERDEERVWQELKAAAALAVDGAFAFEDYLKFNETLTFSAEAKAILDAESYDDLLELIQTHIDELEAKAKTYIHIPRKKWNIQRYIGLGLIVLLVPALIYSMYALFFAQPKHQAIVDSNRAFLNKQYSEVISTLSKYDAESLPESVQYQLATSYVEVENLGSAKTKNIENNLVTLQSDPQHFLYWIDYGRGEYKEAISIGRKLEYNDYIYFALAKYKQQLLSEDTNDEDIQKELDSVNSELEKAQKERQENKQSNSETSLVDTSEEQTQTDEEKQAEE
notes: YukC (EssB) of Bacillus subtilis 168 lacking the last 38 residues at the C terminus; In the model 384 (chain A) and 377 (chain B) residues are assigned; source: E. coli BL21(DE3); purified from Cymal-6-solubilized membranes (StrepTrap, Superdex 200) for crystallization; coexpressed with YukE.his and solubilized with Triton X-100 for copurification
- binding result: binds
